This assay addresses HA-epitope tagged E2F-4 (human) (UniProt Q16254). The experiment in a line: cell-based or functional assay.
UniProt Q16254, sequence (Q16254 whole entry): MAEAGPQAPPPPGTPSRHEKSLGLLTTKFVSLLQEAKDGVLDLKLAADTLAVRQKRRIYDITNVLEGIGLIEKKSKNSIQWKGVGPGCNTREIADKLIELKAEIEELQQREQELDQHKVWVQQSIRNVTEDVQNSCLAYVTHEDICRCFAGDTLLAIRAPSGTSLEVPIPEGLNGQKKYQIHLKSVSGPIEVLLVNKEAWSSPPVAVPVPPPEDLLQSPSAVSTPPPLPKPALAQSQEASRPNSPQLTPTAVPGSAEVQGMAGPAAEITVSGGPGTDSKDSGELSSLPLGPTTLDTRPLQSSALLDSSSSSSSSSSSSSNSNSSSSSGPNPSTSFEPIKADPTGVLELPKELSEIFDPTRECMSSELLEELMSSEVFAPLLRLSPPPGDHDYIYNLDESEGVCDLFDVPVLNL

The substance “HA-tagged p107 (from UniProt P28749 1-1068)” gave an E2F-4 half life (pulse chase, immunoprecipitation with 12CA5, phosphorimager; free E2-F4 approximately 2-3 hours) of 8 h.
